Source: paper doi:10.1101/2023.02.24.529952

Target: HCoV-OC43 Nucleocapsid (N) protein (2X-StrepTag tagged) (HCoV-OC43) (UniProt P33469)
Experiment: BLI

Chain of HCoV-OC43 Nucleocapsid (N) protein (2X-StrepTag tagged) (HCoV-OC43) (P33469 whole entry): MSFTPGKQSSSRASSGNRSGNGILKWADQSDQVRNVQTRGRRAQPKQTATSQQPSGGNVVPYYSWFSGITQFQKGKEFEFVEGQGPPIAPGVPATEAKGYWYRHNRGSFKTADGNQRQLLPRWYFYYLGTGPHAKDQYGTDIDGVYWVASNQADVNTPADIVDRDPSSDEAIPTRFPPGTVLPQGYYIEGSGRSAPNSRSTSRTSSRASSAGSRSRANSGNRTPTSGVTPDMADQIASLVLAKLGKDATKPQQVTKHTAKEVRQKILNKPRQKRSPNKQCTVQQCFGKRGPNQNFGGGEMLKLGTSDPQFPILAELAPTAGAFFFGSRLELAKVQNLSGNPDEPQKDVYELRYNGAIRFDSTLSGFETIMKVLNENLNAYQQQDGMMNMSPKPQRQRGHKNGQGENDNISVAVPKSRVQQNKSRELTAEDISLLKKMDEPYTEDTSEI

Substance CXCL4 (ligand) has a Kd of 170 nM, a koff of 0.00088 s⁻¹ and a kon of 5300 M⁻¹ s⁻¹.
